Results on 16 sequences are retold here after a protein production outcome set (Wang et al. 2014).

The data set is described as follows: label from the status in PepcDB records.
As for “MPNQPVTVESFMPVEGKLREKVIVKGSNFGTDKSKVKVYFVDEAAERLSTVIGIDNNTLYCLAPRQLPGGNRIKVIVDGKEVTTDGTFKYEQAQNVSTISGSASKDGNDDGDLASAKFKYMWGIAAVGNNTVLAYQRDDPRVRLISVDDNKVTTVHPGFKGGKPAVTKDKQRVYSIGWEGTHTVYVYMKASGWAPTRIGQLGSTFSGKIGAVALDETEEWLYFVDSNKNFGRFNVKTQEVTLIKQLELSGSLGTNPGPYLIYYFVDSNFYMSDQNLSSVYKITPDGECEWFCGSATQKTVQDGLREEALFAQPNGMTVDEDGNFYIVDGFKGYCLRKLDILDGYVSTVAGQVDVASQIDGTPLEATFNYPYDICYDGEGGYWIAEAWGKAIRKYAVELEHHHHHH”, the protein production result is on record as “not failed”.

With “MPNSRPRPRRGAGGGAGAAGRDRLVARSLQSAEHCLGDQDFGTAYAHYLLVLSLAPELKDDVKETFQYTLFKWAEELHALSRIQDLLGCYEQALELFPDDEVICNSMGEHLFRMGFRDEAAGYFHKAVKLNPDFNDAKENFYRVANWLVERWHFIMLNDTRRNMVYNAAIQKAVCLGSRTVLDIGTGTGILSMFAKKAGAQSVYACELSKTMYELACDVVAANKMENGIKLLHMKSLDIEIPKHIPERVSLVVTETVDAGVFGEGIVESLIHAWEHLLLQPKTKEENGNCGKYGKVIPAGAVIFGMAVECAEIRRHHRVGAKDIAGIHLPTNVKFQSPAYTSVDTEETVEPYTTEKMSGIPGGYLPLTECFQIMKVDFNNLQELKSLATKKPHSLNVPAIKEGVLDAIMVWFVLQLDDEYSLSTSPSEETCWEQAVYPVQALEDYCIQPGDRVTMEASCHDCYLRIQGISILHLEHEMEVMKGFTKSKDLLSLGNEAELCSALANLQTSRPEALEQTCMLEPTEIALLNNIPYHEGFKTAMRKVLSSLAPELLWQPMDTHCQYMEMNSGSGQSDAAPSTADPFYVLDVSEGFSLLPILAGTLGHVKPYSSVEKDQHCIALDLIAEANHFPKETLEFWLRHIEDEAAVLQRPKSDKLWSIIILDVIEPSGLIQQELMEKAAISRCLLQSGGKIFPQYVLMFGMLVESQTLVEESAVQGTEHTLGLNIAPFINQFQVPIRVCLDLSSLPCVPLSQPVELLRLDLMTPYLNTSNKEVKVRVCRSGRVTAVPFWFHLCLDDEVRLDTSGEASHWKQAAVVLDNPIQVQAGEELVLSVEHHKSNVSIAVKP”, the protein production result was “failed”.

With “MPNTNPVAAWKALKEGNERFVAGRPQHPSQSVDHRAGLAAGQKPTAVIFGCADSRVAAEIIFDQGLGDMFVVRTAGHVIDSAVLGSIEYAVTVLNVPLIVVLGHDSCGAVNAALAAINDGTLPGGYVRDVVERVAPSVLLGRRDGLSRVDEFEQRHVHETVAILMARSSAISERIAGGSLAIVGVTYQLDDGRAVLRDHIGNIGEEV”, the protein production result was “not failed”.

As to “MPNTPWSATSQNLGQDFHNWSGGLRFRPSRLDVPEDEETVAALVRAAARQGRSIRPVGSAHSSSEIYVTDDILVSMAGICGLREHDAQHHRATVGAGSQLTELSKELQAAGMTLSNFGDVATQTVGGAIGTGTHGSGRDFPNLSMMLVGGRLVTAGGEIRTFDVEEEPDFVRALRVSFGTLGILTWTTLKLEPLHDLHRQEWCLAFEPCMEVLDKLSRENRNFDFYWYPRSDEVKIRCLNPPGEEKDYGAFARLAKDETGPPHEVIPQHSDLPHRFEEMEYSMPAEAGPECLGKLRARIKERWRRSVGWRLLFRYIKADDSWLSEAYGRDSVSISLHQNATLPYWDFFLDLEPIMRDHGGRPHWAKKHSLRAAELRPLYPMWDRFLALRQEMDPGGRFLTRYLRGLLGC”, the protein production entry was “failed”. Under “MPPLCRRQSGVPSGRRARHSGGMRLLVLGGTEFVGRSVVEAALGRGWEVTVLHRGRHAPPPGVRALHGDRTAPDGLTALTGAEDTWDAVVDTWSAAPRAVRDAARLLRQRAGRYVYVSSCSVYAWAPPAGYAEDAPLVEGASADAGQRDYARDKRGAELAVLDAFGADRSVLVRAGLILGPYENVGRLPWWLNRLARGGPVLAPGPRDLPLQYIDVRDLADWVLGAVERELSGPYNLVSPPGHTTMGGLLEACATVTGGTAELRWTSPETVLAAGIEPWVQLPVWTPPGSDLHDALHTADVSRALATGLVCRPARDTAAGTWTWLRDLGGTAPQRPDRPPVGLDPETEAKVLAADGPGGGVSDTTP” stands “failed”; under “MPPMLSGLLARLVKLLLGRHGSALHWRAAGAATVLLVIVLLAGSYLAVLAERGAPGAQLITYPRALWWSVETATTVGYGDLYPVTLWGRLVAVVVMVAGITSFGLVTAALATWFVGREQERRGHFVRHSEKAAEEAYTRTTRALHERFDRLERMLDDNRR”, “failed”. Under “MPPPAMLAFDDGLARKSNDNEWQGFRVFPGENTNPNPNINFLVKKAILQNEKSITPLFSRSSARDDSFRIVLPPALPPPRDSTVPLPMLPEPMRVRKKLSHQESVIFMSKSRFAEKILYKEEDFKCNAFCLSLPGFGKNKLIRSSSKRQNSMEKKMIRASSFTGSTVSVRASLEKFECGSWASTTALIQDNGRLFFDFPVEMTKCNSRGGNGGRDVQEPVTSGFLFDRETETLALRSVLKTRSTRDHRRSAESSPQRRVRFSTSSSSASVSCPTSPRTCITPRLRKARDDFNTFLTAQNA” stands “failed”.

On to “MPPVWTLPRLYQHFQGAIDLELWTIPYYLTVLYSIKDPTTVPYRLIQAAVYQEMLHAQLVSNIANAYGYSPTLSAPEYVGTAVPHIDFDLDTPNPTSIFTPYSAELGPLDLTRVNTMCLIEYPEWRTQREPDLADDVTDYGSIGEFYDALRVGMEQLRGHVRGNQKQMDEFGPFYQNSPPLTVTESGDAGFLQALTLVDIIVDQGEGQTQPVETIPTEFQNTADGFQDAWPHFQRFDFIRRMPNWPGVYTGVTDPPAGSPGAEAQARLIADFAGFLDILNGMFSGGGAPPAFGVQMAKLGGDILSCWKLGAVPRYS”, for which the protein production entry is given as “not failed”.

On to “MPQDTTNPSTGTAEQRTATDTTVQLRAGWQGRFYEDFAVGDVYKHPYGRTVTETDNVWFTNLTMNANPMHFNAAYASGTEFDERLVNGLFVIALSVGMSVVDVSANATANLGYDDIQHHAPVFHGDTLFAESEVLSKRESESRPHVGMVTTELRTYTQDGELVLSLERTPMVRKRGAADPSAARPPGWPAGVGTQPDAERTVPDGESR”, for which the protein production result is reported as “failed”. Next, “MPQITLVFISLSGNTLSFVKRLSLYLADNYDYHVKQINIKDLKHETFPVKEEFVAILPTYLEGGNGVDSGDVEILTTPLGEFIAAHGNAQRCLGIIGSGNKNFNHQYCLTAKQYAKRFGFPLLGDFELRGTPDDISRLAQVIMEASSRHSSNDTQTL”: “failed”; “MPQKTKDTPMMRQYFAVKNQYPDAFLFYRLGDFYEMFFDDAIKGAQLLELTLTTRNHSAENPIPMCGVPHRAVQNYIDILVDKGYKVAICEQMEDPKLAKGMVKREVIQLVTPGTTLERGAEQAKTNNYLTALIQRDQQYGFAYADLSTGELKTSVLTTNDTLINELTSLQTKEIVVDDSVASDLRDQIKTLGILISEQNNVTPQAQLSYLTQDLTVDLEQQVVERLLMYITVTQKRSLAHLQKAIAYEPSYFLKLDHNSKYNLELMKSIRTGKKQGTLLWLLDETKTAMGGRLLKQWIDRPLIVKADIETRQNKVATLLDHYFERSNLQEELTKVYDLERLAGRVAFGSVNGRDLVQLKTSLRQIPKIRYILSELDTQVFNDEVNQLDPVEDVADLIDAAIVEDAPLSVTDGGVIKDGYNEQLDQYRDAMNNGKKWIAELEAQERATTGIKNLKIGFNRVFGYYIEVTKANLAQLPKDRYERKQTLTNAERFSTPELKSHESLILEAESHSTDLEYQLFTKVRETVKKAIQRLQTLAKAVAAIDVLQSFAVVSEDYHFVRPKLTKSHDLKIVDGRHPVVEKVMGNQSYVPNNVTMSPDETVLLITGPNMSGKSTYMRQLALTVIMAQIGCFVPAKSAQLPIFDQIFTRIGATDDLISGQSTFMVEMQEANNALQHATANSLVLFDEIGRGTATYDGMALAQAIIEFVHNHIHAKTLFSTHYHELTALDQELSGLRNVHVGATEQDGELVFLHKVEPGAADKSYGVHVAKLAGMPTSLLERANKILTSLENQTSTVSTTAASIAASDAANSVAPNTAASMPVEAADESQPVESETPVAEAPVAEAGDEQLSLFAEPAVTDAKGEKVLQQLKTLNLMAMTPMDVMNQLYKWQQKLGK”: “failed”; “MPQNQLVITIIDESGSKQLKFSKNLKRNLIISVVIFLLIVGLGVGFLKFLIAKMDTMTAERNAVLRDFRDLYQKNYTLTKEIKNKREELFIVGQKIRTIESLIEVKRGANGGVHLYDEVDLDNLNLAQKHLALMLIPNGMPIKTYSAIKPTKERNHPIKKIKGVESGIDFIAPLNTPVYASADGIVDFVKTNSNVGYGNLVRIEHAFGFSSIYTHLDHVNVQPKSFIQKGQLIGYSGKSGNSGGEKLHYEVRFLGKILDAQKFLAWDLDHFQSALEENKFIEWKNLFWVLEDIVQLQEHVDKDALISQ”: “failed”. Take “MPQVDPELFDRGQFQAELALKSSPIAAFKKAIRQFREVLDNRFNSGRDIRRLIEDRAWCVDQILQQAWQRFDWGDDADIALVAVGGYGRGELHPYSDVDLLILLDSEDQESFREPIEGFLTLLWDIGLEVGQSVRSVQQCAEEARADLTVITTLMECRTICGPDSLRQRMLQVTGSAHMWPSKEFFLAKRHEQQRRHAKYNDTEYNLEPNVKGSPGGLRDIQTILWMARRQFGSLNLHALVREGFLVESECSMLASSQEFLWRVRYALHMLAGRAEDRLLFDHQRSIARLFGYEDNDVKLAVERFMQKYYRVVMAISELNDLIIQHFEEVILPCEQPVQIQPLNSRFQLRDGYIEVTHPNVFKRTPFALLEIFVLMAQHPEIKGVRADTIRLLRDSRHLIDDEFRHDIRNTSLFIELFKSSQGIHRNLRRMNRYGILGRYLPEFGHIIGQMQHDLFHIYTVDAHTLNLIKHLRKLNRPEMAEKYPLASKIIDRLPKPELIYIAGLYHDIAKGRGGDHSELGAVDAEAFCQSHQLPLWDTQLVSWLVQNHLVMSTTAQRKDLSDPQVIFDFAQLVGDQTHLDYLYVLTVADINATNPTLWNSWRASLLRQLYTETKRALRRGLENPVDREEQIRQTQTAALDQLVRNGIDQDDAEQLWSQLGDDYFLRHTAGDVAWHTEAILQHPDDGTPLVLIKETTQREFESGSQIFIYAADQHDFFAVTVAAMDQLNLSIQDARIITSTSQFTLDTYIVLDADGDSIGNNPERIAEIREGLIDALKNPDDYPTIIQRRVPRQLKHFAFAPQVTISTDALRQVSVLEVIAPDRPGLLARIGGIFLDFDLSVQNAKIATLGERVEDVFYITDARNQPLADPDLCKRLQAALVEQLSQDNGRDT”: the protein production result is recorded as “failed”. Next, “MPRFRSVFLALLVVPLVDAVFLVFVAGELGWQLTVALVVLTALLGTLFVRAEGRATLSRLQASVARGDPPTNELVDGGLLIAAGAFLLTPGLVTDALGFLIVIPVTRVAFRWGVKRYVTPKLDAKTGGFVSGNVYTFGFPGGDGGAGGDPRSGFGGGAGDGDDDTINLGDDAYDVSFEDDADGDQ”: “failed”; “MPRKNQDLYHHYPQKDRKFTMYKLSEKGEQIREMFSDIAPRYDFLNRLLSFGIDRRWRRIAVQCARWSEGGKILDVATGTGDVALEIARQTPDSVSIIGIDITEGMVVLGREKVAQSPYARRITLEIAPCEAIPFPDNTFDSVTIAFGIRNVVDRRQGLAEMQRILKPGGRAVILEFSTPRSQFFKRVYYFYFLRLLPAIGGLFSNFSAYKYLPDSVLEFPSQEEFKTLMRSVGFHSTTHRDLTFGIATIYTGEKAAQN”: “failed”. On to “MPRRSALLGQPLFRLLAINLAIGVTIAALLLGGLLYLNPGHLRDLIFADDSPGTALGLLLFGFVVTFGSAAMGSAIMAMGSDLRGGGKGGRKLALPIEMIPGAKAIPVRAEHGARAVRRHGSL”, for which the protein production result is recorded as “failed”.
